Experimental data taken from paper doi:10.1101/2024.05.21.594841 (bioRxiv, 2024).
Where two headings read alike, the source gives them in different places.

Experiments:
Assay in all cases: split reporter
[1] = biological target: T1, Yos9p (S. cerevisiae, UniProt Q99220 22-542)
T1 sequence: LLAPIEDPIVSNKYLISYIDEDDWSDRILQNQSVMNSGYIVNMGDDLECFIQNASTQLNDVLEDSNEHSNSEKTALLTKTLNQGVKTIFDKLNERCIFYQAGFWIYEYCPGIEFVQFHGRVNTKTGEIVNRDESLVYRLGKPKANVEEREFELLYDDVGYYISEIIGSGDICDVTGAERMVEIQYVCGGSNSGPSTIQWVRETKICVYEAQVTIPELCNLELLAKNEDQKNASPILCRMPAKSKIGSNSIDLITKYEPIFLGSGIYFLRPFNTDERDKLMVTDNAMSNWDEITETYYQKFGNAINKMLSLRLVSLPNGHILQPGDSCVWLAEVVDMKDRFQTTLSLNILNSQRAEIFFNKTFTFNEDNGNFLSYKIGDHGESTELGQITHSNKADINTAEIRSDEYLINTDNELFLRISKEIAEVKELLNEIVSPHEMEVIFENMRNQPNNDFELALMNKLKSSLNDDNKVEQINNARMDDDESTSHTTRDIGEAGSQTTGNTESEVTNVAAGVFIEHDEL

[2] = biological target: T2, Cpr5p (S. cerevisiae, UniProt P35176 23-225)
T2 sequence (P35176 23-225): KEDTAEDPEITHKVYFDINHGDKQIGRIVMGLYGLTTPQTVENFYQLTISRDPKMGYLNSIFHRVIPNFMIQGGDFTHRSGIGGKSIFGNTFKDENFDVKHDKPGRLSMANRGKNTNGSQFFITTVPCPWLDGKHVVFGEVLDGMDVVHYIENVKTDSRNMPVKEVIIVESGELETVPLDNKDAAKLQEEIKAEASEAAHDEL

[3] = biological target: T3, Mpd1p (S. cerevisiae, UniProt Q12404 22-318)
T3 sequence: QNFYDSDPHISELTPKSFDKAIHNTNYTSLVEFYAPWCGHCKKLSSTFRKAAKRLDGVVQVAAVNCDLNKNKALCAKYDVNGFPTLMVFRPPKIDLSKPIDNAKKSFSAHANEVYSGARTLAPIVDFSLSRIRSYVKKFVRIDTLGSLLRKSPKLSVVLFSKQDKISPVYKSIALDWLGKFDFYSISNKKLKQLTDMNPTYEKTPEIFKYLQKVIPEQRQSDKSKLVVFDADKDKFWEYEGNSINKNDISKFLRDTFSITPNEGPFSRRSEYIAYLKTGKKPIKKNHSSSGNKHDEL

[4] = biological target: T1, Yos9p; remark: listed apart in the source
[5] = biological target: T4, Pdi1p (S. cerevisiae, UniProt P17967 29-522)
T4 sequence: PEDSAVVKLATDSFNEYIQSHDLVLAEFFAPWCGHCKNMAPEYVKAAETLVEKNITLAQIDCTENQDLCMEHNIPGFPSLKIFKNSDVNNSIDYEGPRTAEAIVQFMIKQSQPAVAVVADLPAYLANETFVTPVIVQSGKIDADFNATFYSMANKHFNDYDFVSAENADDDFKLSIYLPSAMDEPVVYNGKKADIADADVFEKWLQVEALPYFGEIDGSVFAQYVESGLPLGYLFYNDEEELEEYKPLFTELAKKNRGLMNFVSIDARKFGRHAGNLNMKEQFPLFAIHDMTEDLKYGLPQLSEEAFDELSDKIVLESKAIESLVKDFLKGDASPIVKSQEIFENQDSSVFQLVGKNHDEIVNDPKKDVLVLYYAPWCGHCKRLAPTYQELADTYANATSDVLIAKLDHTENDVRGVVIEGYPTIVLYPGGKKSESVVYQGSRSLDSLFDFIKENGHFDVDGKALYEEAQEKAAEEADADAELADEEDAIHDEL

[6] = biological target: T2, Cpr5p; remark: listed apart in the source

- normalized interacting score [1]: 16%
- normalized interacting score [2]: 22%
- normalized interacting score [3]: 21%
- normalized interacting score [4]: 64%
- normalized interacting score [5]: 23%
- normalized interacting score [6]: 59%
B1: Kre5p (natural protein)
chain: WTYSLRYGIPESAQVWSILVHLLGDVDNQLLTNLYPLVTGLDDEIDIQENLVALTSNVLRERYDKEDVADLLELYASLYPMGMIQHDISSNAEQDDANSSYFVLNGNRYEKPDDVFYLKSKDLTIQQKVPDVDVIQPYDVVIGTNSEAPILILYGCPTVIDSDFEEFNRNLFMEAMNGEGKFRFIWRSTCSLDGKSVEYPLTHPLEITLQNGSRMSSIPQLKKILYTVPKEILVGADNDDQLHDLEPEELRELDLRVTSLISEFYQYKKDITATLNFTKSIVNNFPLISKQLIKVSSVNKDIITSNEELNSKGFDYNMLGLYINGQNWKITSLTPYNLLTALKTEYQSLLKITNLLQELEPSKCILDSKFLLNKFSQFSLGKLQNLQPIKMDLHTIPGFSESVIYFNDIESDPQYDELVNSVQAFFDKSKFGELPEIKQNWSEIIFVIDFARLEDSEVKEALGGLVRAVNVVSQGYPQRVGLLPFSSDSDKSVVNKIYELKNSTDNLTELKSFLETMLLADGLSANAKHSKHIPVPDVFHLLDELQIDETSIIINGEIYPFRKNAWNYLIAKVIKKDTEFIRKELSNSSPKNKQISVRDLLHYKSANLRHNKYTPNYFADSVYSSVNNTALESVCSERIGYYTKNEEYNLLHTITLVDDFGSIHALKRLRNLLHTSFVGVRIRIIHVGDISDIWYQLRGSLSQKDPIGSINTFIDALKLKKVKSHTYKKSGLNQLGLHKWLPDIPLFELQKGSFIALNGRFIHLDQNEVPETEHFEAIIKREALRTIDSVFALDLLFPGFSQEIINPDLIEMISSILTRLFYQGTHIYNNGIDYTTESSLPRMDLSEFFRPNNLTMFEDGKSASIDLLLILDPLEERTQMILSLVEQFRPLKFVNIQVILMPTLELNIVPIRRIYVDDADIVKSITSEDSRSDPEVDIEMDVPNSFIVDNNYRIKKLLIELHSFSSKTVLSTGNIDGMGGVCLALVDSAGNIIDKTTTMKTFGYGQFHTDKFLKGCYIKSCDSRYTVQSFSTDGHPDFIPSDSLDILSYNPQKIAVKISEEPTHEEEYEEGRNNDTIINIFTILESGPDEEERYMQMILSILSKCPETQKVNFFILDQPFISDTLRKSCEYINSSDEMRGNVIFLNYEWPQWLRPQRFSSRRRDVSRFLFLDVLLPQNISKVLYMSPTEVPLDPFDIFQFQGLKRAPLGLFRMSGDGYWKEGYWEKMLRENNLEFYSTEPAFLVNLERFRELDAGDKYRIHYQRISTDAMSLVNIGQDLVNNLQLEVPIRFLKGSYKKKLVINDECVSEWKKKINKFASSPGDEDVPGESVSSKYQDSDNAAPLHDEL
